Results as given in patent US20170122849.

System: (KW)2KKA-eGFP-AKK(WK)2 (DNA-staining eGFP) (synthetic construct (eGFP from Aequorea victoria?))
Experiment: EMSA
Settings: about; apparent Kd; TE/glycerol, 0.5x TBE 4-20% gel, EtBr stain

CTACTAGCACAATCGACTGTACGGACCGATCGAGTCACTAGCAGTCTAGCAA (double strand) [52-mer random sequence dsDNA]
Kd: 14.7 µM
